We go through four substances from US20200408769A1.

Holding throughout (experiment): cell-based or functional assay
Test [1] concerns the target EpCAM (Epithelial Cell Adhesion Molecule) (human) (UniProt P16422).
Test [2] addresses SDC1 (Syndecan 1) (human) (UniProt P18827).
Test [3] addresses TM4SF1 (Transmembrane 4 L six family member 1) (human) (UniProt P30408).
In test [4] the target is TNFRSF12A (TNF receptor superfamily member 12A) (human) (UniProt Q9NP84).
UniProt Q9NP84, sequence (Q9NP84 28-129 limits assumed): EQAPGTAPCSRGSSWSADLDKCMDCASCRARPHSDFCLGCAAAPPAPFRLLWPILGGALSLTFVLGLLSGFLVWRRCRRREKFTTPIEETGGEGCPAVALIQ

UniProt P30408, sequence (P30408 whole entry): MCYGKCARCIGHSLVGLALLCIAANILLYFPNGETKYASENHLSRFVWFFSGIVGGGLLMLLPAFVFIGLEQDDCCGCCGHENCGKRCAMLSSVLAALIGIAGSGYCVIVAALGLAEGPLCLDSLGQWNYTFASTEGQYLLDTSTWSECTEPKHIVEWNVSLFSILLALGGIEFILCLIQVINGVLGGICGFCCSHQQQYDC
UniProt P16422, sequence (P16422 24-314): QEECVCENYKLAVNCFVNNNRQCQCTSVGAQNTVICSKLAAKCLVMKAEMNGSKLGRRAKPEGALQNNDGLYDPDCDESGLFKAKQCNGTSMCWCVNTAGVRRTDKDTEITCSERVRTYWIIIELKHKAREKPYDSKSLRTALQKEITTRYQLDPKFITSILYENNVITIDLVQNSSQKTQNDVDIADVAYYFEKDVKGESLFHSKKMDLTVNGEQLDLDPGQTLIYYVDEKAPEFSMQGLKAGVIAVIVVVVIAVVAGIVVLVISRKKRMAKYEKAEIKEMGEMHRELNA
UniProt P18827, sequence (P18827 23-310 L136Q limits assumed): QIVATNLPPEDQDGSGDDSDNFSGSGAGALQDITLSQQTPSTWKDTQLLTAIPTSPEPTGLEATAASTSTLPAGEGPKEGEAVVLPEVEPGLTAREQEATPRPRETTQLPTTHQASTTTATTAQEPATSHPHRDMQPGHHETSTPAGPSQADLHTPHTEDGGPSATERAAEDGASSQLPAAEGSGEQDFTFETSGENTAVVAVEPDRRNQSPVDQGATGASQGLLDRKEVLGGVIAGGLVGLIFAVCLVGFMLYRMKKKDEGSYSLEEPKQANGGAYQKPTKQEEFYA

As to “anti-EpCAM antibody (PE-anti-human EpCAM Antibody, Miltenyi Biotec)”, in test [1], the PANC1 cell collection ratio [%] came to 49% and the PC3 cell collection ratio [%] amounted to 42%.

For “anti-SDC1 antibody (PE-anti-human SDC1 Antibody, Biolegend)”, in test [2], the PC3 cell collection ratio [%] amounted to 64%. In the case of “anti-TM4SF1 antibody (Human TM4SF1 Phycoerythrin MAb, R&D systems)”, in test [3], the PANC1 cell collection ratio [%] stood at 66% and the PC3 cell collection ratio [%] is 76%.

Regarding “anti-TNFRSF12A antibody (PE anti-human CD266 (Fn14, TWEAK R) Antibody, Biolegend)”, in test [4], the PANC1 cell collection ratio [%] was 74.1% and the PC3 cell collection ratio [%] worked out at 48%.
